B1: TPR t1 (parent)
chain: GACCAAUCUGCCCUCAGAGCUCGAGAACAUCUUCGGAUGCAGAGGAGGCAGGCUUCGGUGGCGCGAUAGCGCCAACGUCCUCAACCUCCAAUGCAUCCCACCACAUGAUGAUGCCUGAAGAGCCUUGGUUUUUUG

Variants of: B1
Test: polymerase ribozyme fitness, log enrichment relative to wild type (log ratio); higher = more active; in vitro selection for triplet polymerase activity
Procedure, shortened: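 Mutant libraries for each subunit of a heterodimeric triplet polymerase ribozyme were made by PCR and then transcribed. Each library underwent one round of in vitro selection in triplicate: annealing with a biotinylated primer, the partner subunit and triplets, frozen incubation at −7 °C, gel excision of extended constructs, streptavidin-bead capture and RT-PCR. Input and output libraries were Illumina-sequenced, and only genotypes with ≥10 input reads and ≥1 read per output were kept. Fitness is the logarithm, base 2, of genotype enrichment over wild-type enrichment, computed from inverse-variance-weighted replicate averages.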

Variant	polymerase ribozyme fitness (log ratio)
GACCAAUCUGCCCUCAGAGCUCGAGAACAUCCUCGGAUGCAGAGGAGGGAGGCUUCGGUGGCGCGAUAGCGCGAACGUCCUCAACCUGCAAUGCCUCCCACCACAUGAUGAUGCCUGAAGAGCCUUGGUUUUUUG [U32C C49G C73G C88G A95C]	-5.8
GACCAAUCUGCCCUCAGAGCUCGAGAACAUCAUCGGAUGCAGAGGAGGCAGGCUUCGGUGGCGCGAUAGCGCCAACGUCCUCAACCUUCAAUGCAUCCCACCACAUGAUGAUGCCUGAAGAGCCUUGGUUUUUUG [U32A C88U]	-3.8
GACCAAUCUGCCCUCAGAGCUCGAGAACAUCCUCGGAUGCAGAGGAGGGAGCCUUCGGUGGCGCGAUAGCGCCAACGUCCUCAACCUCCAAUGCACCCCACCACAUGAUGAUGCCUGAAGAGCCUUGGUUUUUUG [U32C C49G G52C U96C]	-1.52
GACCAAUCUGCCCUCAGAGCUCGAGAACAUCCUCGGUAGCAGAGGAGUCAGGCUUCGGUGGCGCGAUAGCGCCAACGUCCUCAACCUCCAAUGCAGCCCACCACAUGAUGAUGCCUGAAGAGCCUUGGUUUUUUG [U32C A37U U38A G48U U96G]	-1.88
GACCAAUCUGCCCUCAGAGCUCGAGAACAUCAUCGGAUGCAGAGGAGGCGGGCUUCGGUGGCGCGAUAGCGCCAACGUCCUCAAUCACCAAUGCAUCCCACCACAUGAUGAUGCCUGAAGAGCCUUGGUUUUUUG [U32A A50G C85U U87A]	-4.8
GACCAAUCUGCCCUCAGAGCUCGAGAACAUCAUCGGAUGCAGAGGACGCAGGGUUCGGUGGCGCGAUAGCGCCAACGUCCUCAACAUCCAAUGCAUCCCACCACAUGAUGAUGCCUGAAGAGCCUUGGUUUUUUG [U32A G47C C53G C86A]	-6.08
GACCAAUCUGCCCUCAGAGCUCGAGAACAUCCUCGGAUGCAGAGGAGGCAGGCUUCGGUGGCGCGAUAGCGCCAACGUCCUCAUCCUCCAAUGCAUCCCACCACAUGAUGAUGCCUGAAGAGGCUUGGUUCUUUG [U32C A84U C123G U131C]	1.03
GACCAAUCUGCCCUCAGAGCUCGAGAACAUCCUCGGAUGCAGAGGAGGCAGGCUUAGGUGGCGCGAUAGCGCCAACGUCCUCAACCUCCAAUGCAUCCCACCACAUGAUGAUGCCUGAAGAGCCUUGGUUUUUUG [U32C C56A]	-1.29
GACCAAUCUGCCCUCAGAGCUCGAGAACAUCAUCGGAUGCAGAAGAGGCAGGCUUCGGUGGCGCGAUAGCGCCAACGUCCUCAACCCCCAAUGCAUCCCACCACAUGAUGAUGCCUGAAGAGCCUUGGUUUUUUG [U32A G44A U87C]	-5.32
GACCAAUCUGCCCUCAGAGCUCGAGAACAUCAUCGGAUGUAGAGGAGGCAGGCUUCGGUGGCGCGAUAGCGCCAACGUCCUCAACCUCCAAUGCAUCCCAACACAUGAUGAUGCCUGAAGAGCAUUGGUUUUUUG [U32A C40U C101A C124A]	-3.05
GACCAAUCUGCCCUCAGAGCUCGAGAACAUUUUCGGAUGCAGAGGAGGCAGGCUUCGGUGGCGCGAUAGCGCCAACGUCCUCAACCCCCAAUGCAUCCCACCACAUGAUGAUUCCUGAAGAGGCUUGGUUUAUUG [C31U U87C G113U C123G U132A]	-5.61
GACCAAUCUGCCCUCAGAGCUCGAGAACAUCCUUGGAUCCAGAGGAGGCAGGCUUCGGUGGCGCGAUAGCGCCAACGUCCUCAACCUCCAAUGCAUCCCACCACAUGAUGAUGCCUGAAGAGCCUUGGUUUUUUG [U32C C34U G39C]	-5.23
GACCAAUCUGCCCUCAGAGCUCGAGAACAUCAUCGGAUGCAGAGGAGGCAGGCUUCGGUGACGCGAUAGCGCCAACGUCCUCAACCUCCAAUGCAUCCCACCACAUGAUGAUGCCUGAAGAGGCUUGGUUUUUUG [U32A G61A C123G]	-1.69
GACCAAUCUGCCCUCAGAGCUCGAGAACAUCAUCGGAUGCAGAGGAGGCAGGCUUCGGUGGCGCGAUAGCGCCAACGUCCUCAACCUCCAAUGCAUCCCACCACAUGAUGAAGCCUGAAGAGCCUUGGUUUUUUG [U32A U112A]	-2.37
GACCAAUCUGCCCUCAGAGCUCGAGAACAUCCUCGGAUGGAGAGAAAGCAGGCAUCGGUGUCGCGAUAGCGCCAACGUCCUCAACCUGCAAUGCAUCCCACCACAUGAUCGUGCCUAAAGAGCCAUGGUUUUUUG [U32C C40G G45A G47A U54A G61U C88G G110C A111G G117A U125A]	-7.2
GACCAAUCUGCCCUCAGAGCUCGAGAACAUCAUAGGAUGCAGAGGAGGCAGGCUUCGGUGGCGUGAUAGCGCCAACGUCCUCAACGUCCAAUGCAUCCCACCACAUGAUGAUGACUGAAGAGCCUUGGUUUUCUG [U32A C34A C64U C86G C114A U133C]	-5.96
GACCAAUCUGCCCUCAGAGCUCGAGAACAUUUUCGGAUGCAGAGGAGGCAGGCUUCGGUGGCGCGAUAGCGCCAACGUCCUCAACCCCCAAUGCAACCCACCACAUGAUGAUGCCUGAAUAGCCUUGGUUUUUUG [C31U U87C U96A G120U]	-5.92
GACCAAUCUGCCCUCAGAGCUCGAGAACAUCCUCGGAUGCAGAGGAGGCGGGCUUCGGUGGCGCGAUAGCGCCAACGUCCUCAACCUCCAAUGCAUCCCACCACAUGAUGAUGCCUGUAGAGCCUUGGUUGUUUG [U32C A50G A118U U131G]	-1.27
GACCAAUCUGCCCUCAGAGCUCGAGAACAUCAUCGGAUGCAGAAGAGGCAGGCUUCGGUGGCCCGAUAGCGCCAACGUCCUCAACCCCCAAUGCAUCCCACCACAUGAUGAUGCCUGAAGAGCCUUGGUUUUUUG [U32A G44A G63C U87C]	-4.85
GACCAAUCUGCCCUCAGAGCUCGAGAACAUCAUCGGAUGCAGAGGAGGCAGGCUUCGGUGGCGCGAUAGCGCCAACGUCCUCAACCUCCAAUGCAUCCCACCACAUGAUGAUGCCUAAAGAGCCUUGGUUUUUUG [U32A G117A]	-5.64
GACCAAUCUGCCCUCAGAGCUCGAGAACAUCAUCGGAUGCAGAGGAGGCAGGCUUCGGUGGCGCGAUAGCGCCAACGUCCUCAACCUAAAAUGCAUCCCACCACAUGAUGAUGCCUGAGGAGCCUUGGUUUUUUG [U32A C88A C89A A119G]	-4.6

Variant	polymerase ribozyme fitness (log ratio)
GACCAAUCUGCCCUCAGAGCUCGAGAACAUCCUCGGAUGCUGAGGAGGCAGGCUUCGGUGGCGCGAUAGCGCCAACGUCCUCAACCUCGAAUUCAUCCCACCACAUGAUGAUGCCUGAAGAGCCUUGGUUUUUUG [U32C A41U C89G G93U]	-4.07
GACCAAUCUGCCCUCAGAGCUCGAGAACAUUUUCGGAUGCAGAGGAGGCAGGCUUCGGUGGCGCGAUAGCGCCAACGUCCUCAACCUCCAAUGCAUCCCACCACAUGAUGAAGCCUGAAGAGCCUUGGUUUUUUG [C31U U112A]	-3.16
GACCAAUCUGCCCUCAGAGCUCGAGAACAUCCUCGGAUGCAGAGGAGGCAGGCUUAGGUGGCGCGAUAGCGCCAACGUCCUCAACCUCCAAUGCAUCCCACCACAUGAUGAUGCCGGAAGAACCUUGGUUUCUUG [U32C C56A U116G G122A U132C]	-3.25
GACCAAUCUGCCCUCAGAGCUCGAGAACAUCAUCGGAUGCAGAGGAGGCAGGCUUCGCUGGCGCGAUAGCGCCAACGUCCUCAACCUCCAAUGUAUCCCACCACAUGAUGAUGCCUGAAGAGCCUUGGUUUUUUG [U32A G58C C94U]	-3.96
GACCAAUCUGCCCUCAGAGCUCGAGAACAUCAUCGGAUGCAGAGGAGGCAGGCUUCGGUGGCGCGAUAGCGCCAACGUCCUCAACCUCCAAUGCAUCCCAUCACAUGAUGAUGCCUGAAGAGCCUUGGUUUUUUG [U32A C101U]	-4.58
GACCAAUCUGCCCUCAGAGCUCGAGAACAUCAUCGGAUGCAGAGGAGGCAGGCUUCGGUGGCGCGAUAGCGCCAACGUCCUCAACCUCCAAUGCAUCCCACCACAUGAUGAUGGCUGAAGAGCCUUGGUUUUUUG [U32A C114G]	-4.17
GACCAAUCUGCCCUCAGAGCUCGAGAACAUCCUCGGAUGCAGAGGUGGCAGGCUUCGGUGGCGCGAUAGCGCCAACGUCCUCAACCUCCAAUGCAUCCCACCACAUGAUGAUGCCUGAAGAGCCUUGGUUUUUUG [U32C A46U]	-1.51
GACCAAUCUGCCCUCAGAGCUCGAGAACAUCAUCGGAUGCAGAGGAGCCAGGCUUCGGUGGCGCGAUAGCGCCAACGUCCUCAACCUCCAAUGCAUCCCACCACAUGAUGAUGCCUGAAGAGCCUUGGUUUUUUG [U32A G48C]	-5.23
GACCAAUCUGCCCUCAGAGCUCGAGAACAUCAUCGGAUGCAGAGGAGGCAGGCUUCGGUGGCGCGAUAGCGCCAACGUCCUCAACCUCCAAUGCAUCCCACCACAUGAUGAUGCCUGAAGAGCCUUGGUUUUUUG [U32A]	-3.82
GACCAAUCUGCCCUCAGAGCUCGAGAACAUCCUCGGAUGCAGAGGAGGCAGGCUUCGGUGGCGCGAUAGCGCCAACGUCCUCAACCUCCAAUGCAUCCCACCACAUGAUGAUGCCUGAAGAGCCUUGGUUUUUUG [U32C]	0.135
GACCAAUCUGCCCUCAGAGCUCGAGAACAUUUUCGGAUGCAGAGGAGGCAGGCUUCGGUGGCGCGAUAGCGCCAACGUCCUCAACCUCCAAUGCAUCCCACCACAUGAUGAUGCCUGAAGAGCCUUGGGUUUUUG [C31U U129G]	-5.03
GACCAAUCUGCCCUCAGAGCUCGAGAACAUCCUCGGAUGCAGAGGAGGCAGGCUUCGGUGGAGCGAUAGCGCCAACGUCCUCAACCUCCAAUGCAUCCCACCACAUGAUGAUGCCUGAAGAGCCUUGGUUUUUUG [U32C C62A]	-1.92
GACCAAUCUGCCCUCAGAGCUCGAGAACAUCCUCGGAUGCAGAGGAGGUAGGCUUCGGUGGCGCGAUAGCGCCAACGUCCUCAACCUCCAAUGCAUCCCACCACAUGAUGAUGCCUGAAGAGCCUUGGUUUUUUG [U32C C49U]	-0.805
GACCAAUCUGCCCUCAGAGCUCGAGAACAUCAUCGGAUGCAGAGGAGGCAGGCUUGGGUCGAGCGAUAGCGCCAACGUCCUCAACCUCCAAUGCAUCCCACCACAUGAUGAUGCCUGAAGCGCCUUGGUUUUUUG [U32A C56G G60C C62A A121C]	-6.89
GACCAAUCUGCCCUCAGAGCUCGAGAACAUCAUCGGAUGCAGAGAAGGCAGGCUUCGGUGGCGCGAUAGCGCCAUCGUCCUCAACCUUCAAUGCACCCCACCACAUGAUGAUGCCUGAAGAGCCUUGGUUUUUUG [U32A G45A A75U C88U U96C]	-5.82
GACCAAUCUGCCCUCAGAGCUCGAGAACAUCCUCGGAUGCAGAGGAGGCAGGUUUAGGUGGCGCGAUAGCGCCAACGUCCUCAACCUCCAAUGCAUCCCACCACAUGAUGAUGCCUGUAGAGCCUUGGUUUUUUG [U32C C53U C56A A118U]	0.16
GACCAAUCUGCCCUCAGAGCUCGAGAACAUCCUCGGAUGCAGAGGAGGCAGGCUUUGGUAGCGCGAUAGCGCCAACGUCCUCAACCUACAAUGCAUCCCACCACAUGAUGAUGCCUGAAGAGCCUUGGUUUUUUG [U32C C56U G60A C88A]	-5.77
GACCAAUCUGCCCUCAGAGCUCGAGAACAUCAUCGGAUGCAGAGCAGGCAGGCAUCGGUGUCGCGAUAGCGCCAACGUCCUCAACCUCCAAUGCAUCCCACCACAUGAUGAUGCCUGAAGAGCCUUGGUUUUUUG [U32A G45C U54A G61U]	-3.78
GACCAAUCUGCCCUCAGAGCUCGAGAACAUCAUCGGAUGCAGAGGAGGCAGGCUUCGAUGGCGCGAUAGCGCCAACGUCCUCAACCUCCAAUGAAUCCCACCACAUGAUGAUGCCUGAAGAGCCUUGGUUUUUUG [U32A G58A C94A]	-5.83
GACCAAUCUGCCCUCAGAGCUCGAGAACAUCCUCGGAUGCAGAGGAGGCAGGCUUCGGUGGCGCGAUAGCGCCAGCGUCCUCAACCUCCAAUGCAUCCCACCACAUGAUGAUGCCUGAAGAGCAUUGGUUUUUUG [U32C A75G C124A]	1.81
GACCAAUCUGCCCUCAGAGCUCGAGAACAUCAUCGGAUGCAGAGGAGGGAGGCUUCGGUGGCGCGAUAGCGCCAACGUCCUCAACCUCCAAUGCAUCCCACCACAUGAUGAUGCCUGAAGAGUCUUGGUUUUUUG [U32A C49G C123U]	-4.37

— the RNAGym collection of RNA variant scans (doi:10.1073/pnas.2313332121)
